Measurements: patent publication US20240052042A1 (Novartis, published 2024)
Numbering of substitutions follows the chain as printed.

What was measured:
[1] = molecular target: T1, human NPR1 on CHO-K1 cells (human, UniProt P16066 33-1061); test: cell-based or functional assay
T1 sequence: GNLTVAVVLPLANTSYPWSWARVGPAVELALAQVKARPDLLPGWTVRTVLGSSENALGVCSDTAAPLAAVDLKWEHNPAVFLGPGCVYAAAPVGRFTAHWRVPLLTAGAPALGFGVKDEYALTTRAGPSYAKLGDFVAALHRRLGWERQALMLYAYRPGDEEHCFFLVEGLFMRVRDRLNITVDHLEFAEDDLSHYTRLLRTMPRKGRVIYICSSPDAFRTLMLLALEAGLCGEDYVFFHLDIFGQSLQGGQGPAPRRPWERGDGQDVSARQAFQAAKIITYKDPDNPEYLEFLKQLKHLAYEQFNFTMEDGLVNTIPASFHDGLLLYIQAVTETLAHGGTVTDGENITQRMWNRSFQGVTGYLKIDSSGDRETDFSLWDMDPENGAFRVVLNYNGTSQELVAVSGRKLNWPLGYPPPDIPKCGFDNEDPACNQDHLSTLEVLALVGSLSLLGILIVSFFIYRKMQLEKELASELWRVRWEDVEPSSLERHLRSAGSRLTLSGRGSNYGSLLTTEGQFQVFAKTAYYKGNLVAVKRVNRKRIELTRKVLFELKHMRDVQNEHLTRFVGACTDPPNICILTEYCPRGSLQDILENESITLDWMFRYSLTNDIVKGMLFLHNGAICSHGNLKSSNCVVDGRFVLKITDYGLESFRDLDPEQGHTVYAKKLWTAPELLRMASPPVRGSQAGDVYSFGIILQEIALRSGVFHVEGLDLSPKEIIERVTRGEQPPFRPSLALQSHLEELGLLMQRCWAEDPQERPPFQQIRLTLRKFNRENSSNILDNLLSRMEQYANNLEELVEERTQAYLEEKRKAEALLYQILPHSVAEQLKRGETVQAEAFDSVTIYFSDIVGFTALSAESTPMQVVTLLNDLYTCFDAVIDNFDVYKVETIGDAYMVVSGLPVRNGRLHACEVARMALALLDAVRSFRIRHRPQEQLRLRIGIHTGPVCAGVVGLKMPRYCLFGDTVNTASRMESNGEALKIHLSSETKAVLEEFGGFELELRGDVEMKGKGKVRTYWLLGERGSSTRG

[2] = molecular target: T2, rNPR1-ANP complex (rat, UniProt P01160 124-151 (human entry), limits assumed); test: Octet, FabCys; comment: Heterogenous binding
T2 construct: rNPR1 antigen in the presence of ANP; also called rNPR1 + 100 nM ANP
T2 sequence: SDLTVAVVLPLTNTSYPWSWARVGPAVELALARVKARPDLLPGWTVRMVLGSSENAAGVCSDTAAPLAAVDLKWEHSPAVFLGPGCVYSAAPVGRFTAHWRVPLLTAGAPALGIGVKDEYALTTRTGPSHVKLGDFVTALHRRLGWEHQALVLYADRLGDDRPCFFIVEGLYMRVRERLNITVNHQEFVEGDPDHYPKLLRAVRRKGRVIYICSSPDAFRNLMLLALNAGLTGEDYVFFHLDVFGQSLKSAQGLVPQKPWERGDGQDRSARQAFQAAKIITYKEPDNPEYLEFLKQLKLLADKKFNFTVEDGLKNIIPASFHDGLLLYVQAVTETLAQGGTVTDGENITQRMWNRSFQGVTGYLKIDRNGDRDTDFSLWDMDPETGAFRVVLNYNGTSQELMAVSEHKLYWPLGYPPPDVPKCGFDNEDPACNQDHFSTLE
T2 sequence (peptide): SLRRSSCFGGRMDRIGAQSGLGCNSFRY

[3] = molecular target: T3, hNPR1-ANP complex (human, UniProt P01160 124-151, limits assumed); test: Octet, FabCys; comment: Heterogenous binding
T3 construct: hNPR1 antigen in the presence of ANP; also called hNPR1 + 100 nM ANP
T3 sequence: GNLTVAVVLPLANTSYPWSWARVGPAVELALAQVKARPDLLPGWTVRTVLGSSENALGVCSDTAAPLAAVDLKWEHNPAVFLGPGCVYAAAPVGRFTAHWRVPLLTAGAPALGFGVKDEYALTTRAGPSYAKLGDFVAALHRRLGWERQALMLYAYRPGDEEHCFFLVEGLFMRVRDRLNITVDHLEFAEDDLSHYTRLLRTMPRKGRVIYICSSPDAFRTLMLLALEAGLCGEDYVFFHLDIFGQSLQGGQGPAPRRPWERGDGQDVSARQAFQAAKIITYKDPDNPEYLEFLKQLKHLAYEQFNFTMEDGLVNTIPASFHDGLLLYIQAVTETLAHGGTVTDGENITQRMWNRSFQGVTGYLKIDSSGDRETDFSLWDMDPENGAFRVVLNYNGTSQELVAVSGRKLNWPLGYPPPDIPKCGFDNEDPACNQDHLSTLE
T3 sequence (peptide): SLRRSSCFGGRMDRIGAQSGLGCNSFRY

[4] = molecular target: T2, rNPR1-ANP complex; test: FabCys affinity (Octet per Table 18 comment)
[5] = molecular target: T3, hNPR1-ANP complex; test: FabCys affinity (Octet per Table 18 comment)
[6] = molecular target: T2, rNPR1-ANP complex; test: FabCys, parental value by Octet (table comment), as in Table 14
[7] = molecular target: T3, hNPR1-ANP complex; test: as above
[8] = molecular target: T4, human NPR1 on CHO-K1 cells in the presence of ANP (human, UniProt P01160 124-151); test: flow cytometry, hNPR1 CHO-K1 cells, IgG
T4 construct: also called hNPR1 CHO K1 + 100 nM ANP
T4 sequence: T1 sequence
T4 sequence (peptide): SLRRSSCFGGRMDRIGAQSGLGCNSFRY

[9] = molecular target: T1, human NPR1 on CHO-K1 cells; test: flow cytometry, hNPR1 CHO-K1 cells, IgG
[10] = molecular target: T3, hNPR1-ANP complex; test: ELISA, IgG
[11] = molecular target: T4, human NPR1 on CHO-K1 cells in the …; test: flow cytometry (FL2-H) on hNPR1 CHO-K1 cells with saturating ANP, IgG titrated; control parental CHO-K1 [panel WW01]
[12] = molecular target: T5, human Natriuretic Peptide Receptor 1 (hNPR1) (human, UniProt P16066 33-473, limits assumed); test: FabCys affinity determination
T5 construct: pannings used NPR1-hFc; also called NPR1-hFc
T5 sequence: T3 sequence

[13] = molecular target: T3, hNPR1-ANP complex; test: FabCys affinity determination
[14] = molecular target: T5, human Natriuretic Peptide Receptor 1 …; test: FabCys, parental value as in Table 14 (no method comment)
[15] = molecular target: T3, hNPR1-ANP complex; test: as above
[16] = molecular target: T2, rNPR1-ANP complex; test: FabCys, parental value by Octet, assay limit reached (table comment), as in Table 14
[17] = molecular target: T6, rat NPR1 (rNPR1) (rat, UniProt P18910 29-469, limits assumed); test: as above
T6 construct: Soluble antigen
T6 sequence: T2 sequence

[18] = molecular target: T5, human Natriuretic Peptide Receptor 1 …; test: as above
[19] = molecular target: T3, hNPR1-ANP complex; test: as above
[20] = molecular target: T6, rat NPR1 (rNPR1); test: FabCys affinity (Octet per Table 18 comment)
[21] = molecular target: T5, human Natriuretic Peptide Receptor 1 …; test: FabCys affinity (Octet per Table 18 comment)
[22] = molecular target: T2, rNPR1-ANP complex; test: Octet, FabCys
[23] = molecular target: T6, rat NPR1 (rNPR1); test: Octet, FabCys
[24] = molecular target: T5, human Natriuretic Peptide Receptor 1 …; test: Octet, FabCys
[25] = molecular target: T3, hNPR1-ANP complex; test: Octet, FabCys
[26] = molecular target: T6, rat NPR1 (rNPR1); test: FabCys, parental value by Octet (table comment), as in Table 14
[27] = molecular target: T5, human Natriuretic Peptide Receptor 1 …; test: as above

B1: YY01 (FabCys format) (Fab, V domains shown)
VH: EVQLVESGGGLVQPGGSLRLSCAASGFTFSSYWISWVRQAPGKGLEWVANIKQSGSETYYVESVKGRFTISRDNAKNSLYLQMNSLRAEDTAVYYCARSLRRRSTEHAGFDVWGQGTLVTVSS
VL: DIQMTQSPSSLSASVGDRVTITCRASQGISNYLAWYQQKPGKVPKLLIYAASTLQSGVPSRFSGSGSGTDFTLTISSLQPEDVATYYCQQADKFPYTFGQGTKVEIK
notes: Monovalent FabCys
[1]
  cGMP conc [nM] at 1 µM FabCys, +0.075 nM ANP: 46 nM
  cGMP conc [nM] at 1 µM FabCys, without ANP: 15 nM
[2]
  Kd: 8.8 nM
[3]
  Kd: 26 nM
[4]
  Kd: 14 nM
[5]
  Kd: 16 nM
[6]
  Kd: 14 nM
[7]
  Kd: 16 nM

B2: WW01 (IgG format) (antibody, V domains shown)
VH: QVQLLESGGGLVQPGGSLRLSCAASGFTFNTHYIHWVRQAPGKGLEWVSSISGSGSNTYYADSVKGRFTISRDNSKNTLYLQMNSLRAEDTAVYYCARERGYVYYHMFDPWGQGTLVTVSS
VL: DIVLTQSPATLSLSPGERATLSCRASQSITRNYLAWYQQKPGQAPRLLIYGASSRATGIPARFSGSGSGTDFTLTISSLEPEDFAVYYCQQHSMYPRTFGQGTKVEIKR
notes: also called WW01_LALA
[8]
  flow cytometry S/BG at 2 µM IgG: 222 S/BG
[9]
  flow cytometry S/BG at 2 µM IgG: 19.9 S/BG
[10]
  EC50: 1 nM
[11]
  EC50 (read off the curve): ~3 nM

B3: YY07 (FabCys format) (Fab, V domains shown)
VH: EVQLVQSGAEVKKPGESLKISCKGSGYSFTSYWISWVRQMPGKGLEWMGIIYPGTSYTRYSPSFQGQVTISADKSISTAYLQWSSLKASDTAMYYCARGSLPGLLGFDHWGQGTLVTVSS
VL: QSVLTQPPSVSGAPGQRVTISCTGSSSNIGAGYDVHWYQQLPGTAPKLLIYGNSNRPNGVPDRFSGSKSGTSASLAITGLQAEDEADYYCQSYDSPTSSSVFGGGTKLTVL
notes: Monovalent FabCys
[12]
  Kd: 1.8 nM
[13]
  Kd: 590 nM
[1]
  cGMP conc [nM] at 1 µM FabCys, +0.075 nM ANP: 88 nM
  cGMP conc [nM] at 1 µM FabCys, without ANP: 77 nM
[14]
  Kd: 1.8 nM
[15]
  Kd: 590 nM

B4: YY05 (FabCys format) (Fab, V domains shown)
VH: B3 VH with S100A, L101V, P102A, L104Q
VL: B3 VL with N58S, D94Y, S95T, P96S, T97S, S98H, S99G, S100P
notes: Monovalent FabCys
[16]
  Kd: 16000 nM
[17]
  Kd: 700 nM
[18]
  Kd: 0.9 nM
[19]
  Kd: 350 nM
[1]
  cGMP conc [nM] at 1 µM FabCys, +0.075 nM ANP: 227 nM
  cGMP conc [nM] at 1 µM FabCys, without ANP: 207 nM
[4]
  Kd: 16000 nM
[20]
  Kd: 700 nM
[21]
  Kd: 0.9 nM
[5]
  Kd: 350 nM

B5: YY06 (FabCys format) (Fab, V domains shown)
VH: EVQLLESGGGLVQPGGSLRLSCAASGFTFSSYAISWVRQAPGKGLEWVSAISGSGGSTYYAESVKGRFTISRDNSKNTLYLQMNSLRAEDTAVYYCARPYLGDRRSYGFDHWGQGTLVTVSS
VL: QSALTQPASVSGSPGQSITISCTGTSSDVGSYNLVSWYQQHPGKAPKLMIYEGSKRPSGVSNRFSGSKSGNTASLTISGLQAEDEADYYCSSYGFHIVVVVFGGGTKLTVL
notes: Monovalent FabCys
[1]
  cGMP conc [nM] at 1 µM FabCys, +0.075 nM ANP: 75 nM
  cGMP conc [nM] at 1 µM FabCys, without ANP: 20 nM
[22]
  Kd: 38 nM
[23]
  Kd: 100 nM
[24]
  Kd: 0.62 nM
[25]
  Kd: 0.8 nM
[4]
  Kd: 1400 nM
[20]
  Kd: 1600 nM
[21]
  Kd: 0.5 nM
[5]
  Kd: 1 nM
[6]
  Kd: 1400 nM
[26]
  Kd: 1600 nM
[27]
  Kd: 0.5 nM
[7]
  Kd: 1 nM
